Assay results: PMC4075432

Columns and labels:
[1] = target: BCL2 (human (endogenous in OCI-LY8)) (UniProt P10415); experiment: co-IP
GST-BCL2 = GST-BCL2 (UniProt P10415); experiment: fluorescence polarisation

Row | percent of PARP1 displaced from BCL2 by 100 nM ABT-737 [1] [%] | Ki (GST-BCL2) [nM] | Substance
1 | 65 |  | poly(ADP) ribose polymerase 1 (PARP1) (from UniProt P09874 1-1014) (enzyme)
2 |  | 77 | purified PARP1 (from UniProt P09874 1-1014) (enzyme)
